Assay: yeast display, Sf9 membrane polyspecificity reagent, FACS + sequencing; frameworks hold sequencing errors
Outline: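 A synthetic nanobody library was expressed on Saccharomyces cerevisiae BJ5465 by galactose induction for 36–48 hours. The library was stained for 1 hour at 4 °C with 10% biotinylated, detergent-solubilized Sf9 membrane reagent and enriched with streptavidin microbeads before FACS. Low and high (top ~1%) gates were set on anti-HA fluorescence for expression and streptavidin fluorescence for reagent binding, and each polyreactivity label reflects the gate of origin.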

Row | Sequence | polyreactivity (PSR sort gate)
1 | QVQLVESGGGLVQAGGSLRLSCAASGSIFLRYAMGWYRQAPGKERELVAAITTGGGSTYYADSVKGRFTISRDNAKNTVYLQMNSLKPEDTAVYYCAARIRQNPGGDNSWGQGTQVTVSS | low polyreactivity
2 | QVQLVESGGGLVQAGGSLRLSCAASGSIFLSNARGWYIQAPGKERELVADIDWTRGDTYYADSVKGRFTISRDNAKNTVYLQMNSLKPEDTAVYDCAADYGYRNLLTEYGYWGQGTEVTVSS | low polyreactivity
3 | QVQLVESGGGLVQAGGSLRLSCAASGSIFLSYAMGWYRQAPGKERELVAAISGRGGSTYYADSVKGRFTISRDNAKNTGYLQMNSLKPEDTAVNYCASEQWGWYWYDYWGQGTQVTVSS | high polyreactivity
4 | QVQLVESGGGLVQAGGSLRLSCAASGSIFLTYAMGWYRQAPGKERELVAAISSSVGSTNYADSVKGRFTISRDNAKNTVYLQMNSLKPEDTAVYYCNATGVQYFLYGYWGQGTQVTVSS | low polyreactivity
5 | QVQLVESGGGLVQAGGSLRLSCAASGSIFLVNAMGWYRQAPGKERELVAAINSGGSTYYADSVKGRFTISRDNAKNTVYLQMNSLKPEDTAVYYCAADFWLKVWQDTDYDYDYWGQGTQVTVSS | low polyreactivity
6 | QVQLVESGGGLVQAGGSLRLSCAASGSIFLVNAMGWYRQAPGKERELVAAITYGGDSTYYADSVKGRFTISRDNAKNTVYLQMNSLKPEDTAVYYCAADAWVGWHDEYDYWGQGTQVTVSS | low polyreactivity
7 | QVQLVESGGGLVQAGGSLRLSCAASGSIFLVYAMGWYRQAPGKERELVAAISRSGRTYADSVKGRFTISRDNAKNTVYLQMNSLKPEDTAVYYCAAGTKRRFEGDYWGQGTQVTVSS | high polyreactivity
8 | QVQLVESGGGLVQAGGSLRLSCAASGSIFLWNAMGWYRQAPGKERELVAAITWRGGRTSYADSVKGRFTISRDNAKNTVYLQMNSLKPEDTAVYYCAKEAHPPWTGQDVFRSYDYWGQGTQVTVSS | low polyreactivity
9 | QVQLVESGGGLVQAGGSLRLSCAASGSIFLYNAMGWYRQAPGKERELVADITTTGGSTYYADSVKGRFTISRDNAKNTVYLQMNSLKPEDTAVYYCNVDYWGQGTQVTVSS | low polyreactivity
10 | QVQLVESGGGLVQAGGSLRLSCAASGSIFLYYAMGWYRQAPGKERELVAAISGRAGSTYYADSVKGRFTISRDNAKNTVYLQMNSLKPEDTAVYYCAAGYWQGYPGFKYYWGQGTQVTVSS | low polyreactivity
11 | QVQLVESGGGLVQAGGSLRLSCAASGSIFLYYTMGWYRQEPGKERELVAAITWSGSSTYYADSVKGRFTISRDNAKNTVYLQMNSLKPEDTAVYYCATRYRYRYWGQGTQVTVSS | high polyreactivity
12 | QVQLVESGGGLVQAGGSLRLSCAASGSIFNAYVMGWYRQAPGKERELVAAISRSGGRTYYADSVKGRFTISRDNAKNTVYLQMNSLKPEDTAVYYCAADYGGPYGQLDYWGQGTQVTVSS | high polyreactivity
13 | QVQLVESGGGLVQAGGSLRLSCAASGSIFNGYAMGWYRQAPGKERELVADIRSGGSTYYADSVKGRFTISRDNAKYTVYLQMNSLKPEDTAVYYCAADTITDGYDYWGQGTQVTVSS | low polyreactivity
14 | QVQLVESGGGLVQAGGSLRLSCAASGSIFNGYAMGWYRQAPGKVRELVAAISWNGGRTYYADSVKGRFTISRDNAKNTVYLQKNSLKPEDTAVYYCNKVSGYDVDYWGQGTQVTVSS | high polyreactivity
15 | QVQLVESGGGLVQAGGSLRLSCAASGSIFNHYAMGWYRQAPGKERELVAAISGSGGSTYYADSVKGRFTISRDNAQNTVYLQMYSLKPEDTAVYYCAARILRHWVSAEYYWGQGTQVTVSS | low polyreactivity
16 | QVQLVESGGGLVQAGGSLRLSCAASGSIFNHYAMGWYRQAPGKERELVAVIPSGGSTNYADSVKGRFTISRDNAKNTVYLQMNSLKPEDTAVYYCAADTYLSAVDYYGWAHDYWGQGTQVTVSS | low polyreactivity
17 | QVQLVESGGGLVQAGGSLRLSCAASGSIFNINAMGWYRQAPGKEREFVAAIDYSDSTYYADSVKGRFTISRDNAKNTVYLQMNSLKPEDTAVYYCAADVWKDGYWGDYWGQGTQVNVSS | high polyreactivity
18 | QVQLVESGGGLVQAGGSLRLSCAASGSIFNKYAMGWYRQAPGKERELVAAISVSGTRTYYADSVKGRFTISRDNAKNTVYLQMNSLKPEDTAVYYCAAGGVGAYDYWGQGTQVTVSS | high polyreactivity
19 | QVQLVESGGGLVQAGGSLRLSCAASGSIFNPNAMGWYRQAPGKERELLAAIDSGGTTDYADSVKGRFTISRDNAKNTVYLQMNSLKPEVTAVYYCNADRTVTSSSFTDYDYWGQGTQVTVSS | high polyreactivity
20 | QVQLVESGGGLVQAGGSLRLSCAASGSIFNPYAMGWYRQAPGKERELVAAISSTGSTYYADSVKGRFTISRDNAKNTVYLQMNSLKPEDTAVYYCAADWYWYWFSTYDYWGQGTQVTVSS | low polyreactivity
21 | QVQLVESGGGLVQAGGSLRLSCAASGSIFNQYAMGWYRQAPGKERELVAAISSGSTYYADSVKGRFIISRDNAETTVYLQMYSLKPEDTAVYYCNAYYVNYVSNYESWGQGTQVTVSS | high polyreactivity
22 | QVQLVESGGGLVQAGGSLRLSCAASGSIFNRNAMGWYRQAPGKERELVAVISWTGDGTYYADSVKGRFTISRDNAKNTVYLQMNSLKPEDTAVYYCAARWYVQFYHRPVSKRYYWGQGTQVTVSS | high polyreactivity

Row | Sequence | polyreactivity (PSR sort gate)
23 | QVQLVESGGGLVQAGGSLRLSCAASGSIFNRYAMGWYRQAPRKERELVAAITAGGSSTYYADSVKGRFTISRDNAKNTVYLQMNSLKPEDTAVYYCNAVWWHPKDYDYWGQGTQVTVSS | low polyreactivity
24 | QVQLVESGGGLVQAGGSLRLSCAASGSIFNRYTMGWYRQAPGKETELVAAISRGDTTYYADSVKGRFTISRDNAKNTVYLEMNSLKPEDTAVYYWAKAYDTTLTYNYWGQVTQVTVSS | low polyreactivity
25 | QVQLVESGGGLVQAGGSLRLSCAASGSIFNSNAMGWSRQAPGKERELVAVISWSDGSTRYADSVKGRFTISRDNAKNTVYLQMNSLKPEDTAVYYCNADLVYYYRQEVDYWGQGTQVTVSS | low polyreactivity
26 | QVQLVESGGGLVQAGGSLRLSCAASGSIFNTYVMGWYRQAPGKERELVAAITYSAGGDTYYADSVKGRFTISRDNAKNTVYLQMNSLKPEDTAVYYCAAEYTYLDAYGSYDYWGQGTQVTVSS | low polyreactivity
27 | QVQLVESGGGLVQAGGSLRLSCAASGSIFNWYAMGWYRRAPGKERELVAAISQSGTRTFYADSVKGRFTISRDNAKNTVYLQMNSLKPEDTAVYYCNTVKAGYDGYDRDYWGQGTQVTVSS | high polyreactivity
28 | QVQLVESGGGLVQAGGSLRLSCAASGSIFNYNAMGWYRQAPGKERELVAGITTSGGSTYYADSVKGRFTISRDNAKNTVYLQMNSLKPEDTAVYYCAAYDYISSTYFLDDYWGQGTQVTVSS | low polyreactivity
29 | QVQLVESGGGLVQAGGSLRLSCAASGSIFNYNMGWYRQAPGKERELVAAITSSGGSTYYADSVKGRFTISRDNAKNTVYLQMNSLKPEDTAVYYCAAPISRSAGWDSYDYWGQGTQVTVSS | low polyreactivity
30 | QVQLVESGGGLVQAGGSLRLSCAASGSIFNYYAMGWYRQAAGKERELVAVITSGGSTYYAESVKGRFTISRDNAKYSVYLQMNSLKPEDTAVYFCAADDGTGEASVSSNLYDYWGQGTQVTVSS | low polyreactivity
31 | QVQLVESGGGLVQAGGSLRLSCAASGSIFNYYTMGWYRQAPGKERELVAAISYRGGRTYYADSVKGRFTISRDNAKNTVYLQMNSLKPEDTAVYYCNAVTRIYEVDYWGQGTQVTVSS | high polyreactivity
32 | QVQLVESGGGLVQAGGSLRLSCAASGSIFNYYTMGWYRQAPGKERELVARITSGDSTYYADSVKGRFTISRDNAKNTVYLQMNSLKPEDTAVYYCNAGLYRRRSTYYRQAYNYWGQGTQVTVSS | high polyreactivity
33 | QVQLVESGGGLVQAGGSLRLSCAASGSIFPANAMGWYRQAPGKERELVAGISERGSSTYYAVSVKGRFTISRDNAKNTVYLQMNSLKPEDTAVYYCAADLVGRYWSSTHNWARGDYWGQVTQVTVSS | low polyreactivity
34 | QVQLVESGGGLVQAGGSLRLSCAASGSIFPAYDMGWYRQAPGKERELVAAIDRGGSTYYADSVKGRFTISRDNAKNTVYLQMNSLKPEDTAVYYCATGYWNTSVYVRLEKRDYWGQGTQVTVSS | low polyreactivity
35 | QVQLVESGGGLVQAGGSLRLSCAASGSIFPDNTMGWYRQAPGKERELVAAIDGRGGTTYYADSVKGRFTISRDNAKNTVYLQMNSLKPEDTAVYYCNAGVWTYWHIEMDYWGQGTQVTVSS | low polyreactivity
36 | QVQLVESGGGLVQAGGSLRLSCAASGSIFPDNTMGWYRQSPGKDRELVGAIDGRGGTTYYADSVKGSFTISRDNAKNTVYLQMNSLKPEDTAVYYCARDIGHSASYDYWGQGTQVTVSS | low polyreactivity
37 | QVQLVESGGGLVQAGGSLRLSCAASGSIFPDYALGWYRQPPGKERELVAAITWRDDSTYYADSVKGRFTSSRDKAKNTVYLQMNSLKPEETAVYYCNASAMDPLYAKDDYWGQGTQVTVSS | low polyreactivity
38 | QVQLVESGGGLVQAGGSLRLSCAASGSIFPDYAMGWYRTAPGKERELVAAISWDGGRTYYADSVKGRFTISRDNAKNTVYLQMNSLKPEDTAVYYCYWYDYWGQGTQVTVSS | high polyreactivity
39 | QVQLVESGGGLVQAGGSLRLSCAASGSIFPDYGMGWYRQAPGKEREFVAAIDWSGTSTYYADSVKGRFTISRDNAKNTVYLQMNSLKPEDTAVYYCAARWDKSPFKLYDSWGQGTQVTVSS | low polyreactivity
40 | QVQLVESGGGLVQAGGSLRLSCAASGSIFPEYAMGWYRQAPGKERELVAAITTSGGSTYYADSVKGRFTISRDNAKNTVYLQMNSLKPEDTAVYYCAVEYLVYLDYTYDYWGQGTQVTVSS | low polyreactivity
41 | QVQLVESGGGLVQAGGSLRLSCAASGSIFPFNAMGWYRPAPGKERELVAAITSGGSTNYADSVKGRFTISRDNAKNTVYFQMNSLKPEDTAVYYCAADWRYWRWAFDYWGQGTQVTVSS | high polyreactivity
42 | QVQLVESGGGLVQAGGSLRLSCAASGSIFPFNAMGWYRPAPGKERELVAAITSGGSTNYADSVKGRFTISRDNAKNTVYLQMNSLKPEDTADYYCAADWRYWRWAFDYWGQGTQVTVSS | high polyreactivity
43 | QVQLVESGGGLVQAGGSLRLSCAASGSIFPFNAMGWYRQAPGKERELVAAISVNGGTTYYADSVKGRFTISRDNAKNTVYLQMNSLKPEDTAVYYCNARRAYLYYVSYRYGYWGQGTQVTVSS | low polyreactivity
